Source: PMC11116813 (2024)

Legend:
Experiment in all cases: ITC
[1] = molecular target: T1, full-length human HP1α WT (hHP1α), recombinant (human, UniProt P45973 1-191)
[2] = molecular target: human HP1α chromoshadow domain (CSD), recombinant (human)
[3] = molecular target: human HP1α chromoshadow domain (CSD), recombinant (human); remark: listed apart in the source
[4] = molecular target: T1, full-length human HP1α WT (hHP1α), …; remark: listed apart in the source

T1 sequence (P45973 whole entry, the tested form may be a part): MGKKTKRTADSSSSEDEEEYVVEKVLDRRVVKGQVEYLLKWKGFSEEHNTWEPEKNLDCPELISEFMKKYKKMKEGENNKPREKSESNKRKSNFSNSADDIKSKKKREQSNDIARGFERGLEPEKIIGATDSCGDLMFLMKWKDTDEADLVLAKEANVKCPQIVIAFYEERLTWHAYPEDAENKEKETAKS
Sequence of human HP1α chromoshadow domain (CSD), recombinant (human) (chain, as listed by the source): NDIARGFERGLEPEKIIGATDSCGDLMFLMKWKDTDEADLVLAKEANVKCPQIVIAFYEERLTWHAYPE

Ka [1]	Ka [2]	Kd [3]	Kd [4]	Binder
2.35e+07 M⁻¹	–	–	–	human INCENP (121-270) WT -6His, GST removed (domain or fragment) LRRVTRAAAAAAAATMALAAPSSPTPESPTMLTKKPEDNHTQCQLVPVVEIGISERQNAEQHVTQLMSTEPLPRTLSPTPASATAPTSQGIPTSDEESTPKKSKARILESITVSSLMATPQDPKGQGVGTGRSASKLRIAQVSPGPRDSP
–	2.57e+07 M⁻¹	39 nM	–	YHTQCQLVPVVEIGISERQNAEQHVTQLMSTEPL (domain or fragment) [human INCENP (160-192), untagged version (Tyr-added), GST removed]
242000 M⁻¹	–	–	–	human Sgo1 fragment (405-494), Tyr-added, GST removed (domain or fragment) YAKRALKYTDEKETEGSKPTKTPTTTPPETQQSPHLSLKDITNVSLYPVVKIRRLSLSPKKNKASPAVALPKRRCTASVNYKEPTLASKLR
3.9e+07 M⁻¹	2.56e+07 M⁻¹	39 nM	25 nM	human INCENP (160-210) -6His, GST removed (domain or fragment) HTQCQLVPVVEIGISERQNAEQHVTQLMSTEPLPRTLSPTPASATAPTSQG
7.25e+07 M⁻¹	–	–	14 nM	human INCENP (121-210) -6His, GST removed (Fig. 2D) (domain or fragment) LRRVTRAAAAAAAATMALAAPSSPTPESPTMLTKKPEDNHTQCQLVPVVEIGISERQNAEQHVTQLMSTEPLPRTLSPTPASATAPTSQG
1.82e+07 M⁻¹	–	–	55 nM	human INCENP fragment (121-210) WT used in Fig. 6A (domain or fragment) YLRRVTRAAAAAAAATMALAAPSSPTPESPTMLTKKPEDNHTQCQLVPVVEIGISERQNAEQHVTQLMSTEPLPRTLSPTPASATAPTSQG
